Experimental data taken from patent publication US20060134736A1.

Molecular target: full-length human growth hormone receptor (stably transfected in BaF3 cells, cell line Baf-B03 B2B2) (human) (UniProt P10912)
Test: cell-based or functional assay

UniProt P10912, sequence (P10912 19-638): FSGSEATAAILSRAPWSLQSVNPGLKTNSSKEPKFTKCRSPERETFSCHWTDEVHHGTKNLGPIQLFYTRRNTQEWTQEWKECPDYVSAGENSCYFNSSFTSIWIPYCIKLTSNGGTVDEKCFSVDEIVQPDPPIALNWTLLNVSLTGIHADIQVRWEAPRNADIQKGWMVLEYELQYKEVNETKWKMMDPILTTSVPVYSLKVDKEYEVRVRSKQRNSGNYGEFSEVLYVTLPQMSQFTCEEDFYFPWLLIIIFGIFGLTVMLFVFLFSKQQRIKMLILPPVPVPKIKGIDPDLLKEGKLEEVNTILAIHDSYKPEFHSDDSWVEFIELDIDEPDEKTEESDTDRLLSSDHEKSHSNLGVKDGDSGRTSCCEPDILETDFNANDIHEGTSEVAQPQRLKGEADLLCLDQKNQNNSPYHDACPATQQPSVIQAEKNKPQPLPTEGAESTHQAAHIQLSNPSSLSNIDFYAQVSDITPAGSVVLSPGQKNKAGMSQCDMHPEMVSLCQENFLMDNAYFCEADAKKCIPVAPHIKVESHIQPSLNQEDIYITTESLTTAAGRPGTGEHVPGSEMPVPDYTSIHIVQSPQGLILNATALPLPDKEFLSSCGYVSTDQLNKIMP

Specific Activity (IU/mg) in the Cell Proliferation Assay [IU/mg] | Substance
0.25 | Di-PEG-hGH (two PEGs attached to one hGH molecule, Lot No BPM#04-004) (from UniProt P01241 27-217) (ligand)
0.46 | Mono-PEG-hGH (one PEG attached to one hGH molecule, Lot No BPM#04-003) (from UniProt P01241 27-217) (ligand)
